Values quoted from earlier work, collected in publication PMC3789827.

Columns and labels:
[1] = molecular target: BMPR1B ECD (Homo sapiens) (UniProt O00238); assay: SPR (Biacore)
[2] = molecular target: BMPR1A ECD (Homo sapiens) (UniProt P36894); assay: SPR (Biacore)
Sequence of BMPR1A ECD (Homo sapiens) (P36894 24-152): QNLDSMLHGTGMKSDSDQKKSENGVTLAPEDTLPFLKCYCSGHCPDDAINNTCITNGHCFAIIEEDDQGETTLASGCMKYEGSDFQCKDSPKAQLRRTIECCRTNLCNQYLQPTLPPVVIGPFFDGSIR

Sequence of GDF5 (P43026 382-501): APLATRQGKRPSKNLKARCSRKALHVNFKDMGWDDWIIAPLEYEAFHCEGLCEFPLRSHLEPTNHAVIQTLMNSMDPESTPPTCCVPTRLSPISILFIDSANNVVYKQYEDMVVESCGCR
Sequence of BMPR1B ECD (Homo sapiens) (O00238 14-126): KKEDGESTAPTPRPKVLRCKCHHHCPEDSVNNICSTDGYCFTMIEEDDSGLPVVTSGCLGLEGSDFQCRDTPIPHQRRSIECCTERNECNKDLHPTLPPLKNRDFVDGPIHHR

- Kd [1]: 1.1 nM
- Kd [2]: 17 nM
Substance: GDF5 (from UniProt P43026)
